What all share (test): cell_activity
Data set [1] has as its system ExoS54-FLAG-TALEN1 (gfp/Venus left TALEN) (Artificial). The conditions noted are these: paired with TALEN2; T3SS protein injection into EB5 mESC, MOI 100, 3 h; about 30% at MOI 400; indels confirmed by sequencing.
The test system of data set [2] is ExoS54-FLAG-HPRT1-T2 (HPRT1 right TALEN) (Artificial). Conditions: paired with HPRT1-T1; human iPSC, MOI 100, 3 h, after 6TG selection, no template; overall mutation efficiency about 1%.
For data set [3], the system named is ExoS54-FLAG-HPRT1-T1 (HPRT1 left TALEN) (Artificial). The conditions noted are these: paired with HPRT1-T2; human iPSC, MOI 100, 3 h, after 6TG selection, no template; overall mutation efficiency about 1%.
Data set [4] concerns ExoS54-FLAG-TALEN2 (gfp/Venus right TALEN) (Artificial). The conditions noted are these: paired with TALEN1; T3SS protein injection into EB5 mESC, MOI 100, 3 h; about 30% at MOI 400; indels confirmed by sequencing.

Sequence “TTCACCGGGGTGGTGCC (double strand) [gfp TALEN left half-site]” came in with an activity (% GFP-negative cells) in data set [1] of 20.

Consider “GATGGGAGGCCATCACATTGT (double strand) [HPRT1 exon 2 TALEN right half-site (top strand)]”, for which the activity (% DNA lost XhoI site) in data set [2] is 20. “GTAGGACTGAACGTCTTGCTC (double strand) [HPRT1 exon 2 TALEN left half-site]”: in data set [3], the activity (% DNA lost XhoI site) was 20. For the sequence “CTGGACGGCGACGTAAA (double strand) [gfp TALEN right half-site (top strand)]”, the activity (% GFP-negative cells) in data set [4] turned out to be 20.

These data come from US20180119119.
